Assay results from PMC12383261, “Mechanistic adaptation of the metazoan RabGEFs Mon1-Ccz1 and Fuzzy-Inturned” (Science Advances, 2025).

B1: HsFuzzy (human Fuzzy) (natural protein)
chain: GEEGTGGTVHLLCLAASSGVPLFCRSSRGGAPARQQLPFSVIGSLNGVHMFGQNLEVQLSSARTENTTVVWKSFHDSITLIVLSSEVGISELRLERLLQMVFGAMVLLVGLEELTNIRNVERLKKDLRASYCLIDSFLGDSELIGDLTQCVDCVIPPEGSLLQEALSGFAEAAGTTFVSLVVSGRVVAATEGWWRLGTPEAVLLPWLVGSLPPQTARDYPVYLPHGSPTVPHRLLTLTLLPSLELCLLCGPSPPLSQLYPQLLERWWQPLLDPLRACLPLGPRALPSGFPLHTDILGLLLLHLELKRCLFTVEPLGDKEPSPEQRRRLLRNFYTLVTSTHFPPEPGPPEKTEDEVYQAQLPRACYLVLGTEEPGTGVRLVALQLGLRRLLLLLSPQSPTHGLRSLATHTLHALTPLL
notes: Fuzzy, human; also called His-SUMO-Fuzzy; source: Spodoptera frugiperda 21 cells (biGBac), coexpressed with Inturned and Rab23^N121I, purified (glutathione agarose, SEC)
B2: Rab23^I33A/T35A (natural protein)
chain: MLEEDMEVAIKMVVVGNGAVGKSSMIQRYCKGAFAKDYKKTIGVDFLERQIQVNDEDVRLMLWDTAGQEEFDAITKAYYRGAQACVLVFSTTDRESFEAVSSWREKVVAEVGDIPTVLVQNKIDLLDDSCIKNEEAEALAKRLKLRFYRTSVKEDLNVNEVFKYLAEKYLQKLKQQIAEDPELTHSSSNKIGVFNTSGGSHSGQNSGTLNGGDVINLRPNKQRTKKNRNPFSSCSIP
B3: HsRab23^N121I (nucleotide-free mutant of human Rab23) (natural protein)
chain: LEEDMEVAIKMVVVGNGAVGKSSMIQRYCKGIFTKDYKKTIGVDFLERQIQVNDEDVRLMLWDTAGQEEFDAITKAYYRGAQACVLVFSTTDRESFEAVSSWREKVVAEVGDIPTVLVQIKIDLLDDSCIKNEEAEALAKRLKLRFYRTSVKEDLNVNEVFKYLAEKYLQKLKQQIAEDPELTHSSSNKIGVFNTSGGSHSGQNSGTLNGGDVINLRPNKQRTKKNRNPFSSCSIP
notes: Rab23, human; also called GST-Rab23^N121I; source: Spodoptera frugiperda 21 cells (biGBac), coexpressed with Fuzzy and Inturned, purified (glutathione agarose, SEC); not shown: GST, N-terminal, cleaved

Key:
[1] = molecular target: T1, HsInturned (human Inturned) (human, UniProt Q9ULD6 1-942); experiment: cryo-EM structure; HsFuzzy, HsInturned and HsRab23^N121I coexpressed in insect cells, complex purified; ~0.7 mg/ml; 0.002% lauryl maltose neopentyl glycol on grid; dimeric and trimeric particles in one sample; 50 mM tris, 200 mM NaCl, 0.5 mM TCEP, 1 mM MgCl2 (pH 8); settings: both partners purified
T1 construct: Inturned, human; the N-terminal PDZ domain is not visible in the map; also called FLAG-Inturned; source: Spodoptera frugiperda 21 cells (biGBac), coexpressed with Fuzzy and Rab23^N121I, purified (glutathione agarose, SEC)
T1 sequence: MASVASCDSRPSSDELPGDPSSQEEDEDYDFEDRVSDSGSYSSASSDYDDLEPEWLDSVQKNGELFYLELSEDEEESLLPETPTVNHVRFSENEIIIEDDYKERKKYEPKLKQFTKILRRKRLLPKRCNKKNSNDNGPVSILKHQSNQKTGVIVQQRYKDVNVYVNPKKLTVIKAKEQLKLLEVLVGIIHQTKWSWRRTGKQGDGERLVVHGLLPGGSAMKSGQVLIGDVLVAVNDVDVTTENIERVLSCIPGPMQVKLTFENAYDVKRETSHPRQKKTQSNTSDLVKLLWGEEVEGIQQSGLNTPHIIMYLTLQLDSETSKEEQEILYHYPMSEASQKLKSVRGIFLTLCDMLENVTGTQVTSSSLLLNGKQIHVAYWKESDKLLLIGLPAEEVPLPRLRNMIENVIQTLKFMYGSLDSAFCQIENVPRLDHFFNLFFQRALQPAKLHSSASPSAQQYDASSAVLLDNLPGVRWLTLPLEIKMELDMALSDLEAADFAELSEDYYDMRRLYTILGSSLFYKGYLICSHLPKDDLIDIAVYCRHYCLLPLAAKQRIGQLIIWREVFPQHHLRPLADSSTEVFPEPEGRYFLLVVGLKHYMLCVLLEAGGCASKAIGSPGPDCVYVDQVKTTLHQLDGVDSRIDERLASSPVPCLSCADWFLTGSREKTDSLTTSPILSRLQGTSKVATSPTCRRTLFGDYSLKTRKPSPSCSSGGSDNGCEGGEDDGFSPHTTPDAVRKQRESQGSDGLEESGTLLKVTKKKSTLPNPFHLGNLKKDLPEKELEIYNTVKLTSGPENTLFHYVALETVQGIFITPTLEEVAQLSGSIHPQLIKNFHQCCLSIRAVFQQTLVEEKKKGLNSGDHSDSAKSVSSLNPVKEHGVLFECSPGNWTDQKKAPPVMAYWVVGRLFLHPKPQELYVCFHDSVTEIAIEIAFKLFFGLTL

[2] = molecular target: T2, Fuzzy^LD1-Inturned^LD1 catalytic core complex (human)
T2 sequence (Q9BT04 whole entry, looked up): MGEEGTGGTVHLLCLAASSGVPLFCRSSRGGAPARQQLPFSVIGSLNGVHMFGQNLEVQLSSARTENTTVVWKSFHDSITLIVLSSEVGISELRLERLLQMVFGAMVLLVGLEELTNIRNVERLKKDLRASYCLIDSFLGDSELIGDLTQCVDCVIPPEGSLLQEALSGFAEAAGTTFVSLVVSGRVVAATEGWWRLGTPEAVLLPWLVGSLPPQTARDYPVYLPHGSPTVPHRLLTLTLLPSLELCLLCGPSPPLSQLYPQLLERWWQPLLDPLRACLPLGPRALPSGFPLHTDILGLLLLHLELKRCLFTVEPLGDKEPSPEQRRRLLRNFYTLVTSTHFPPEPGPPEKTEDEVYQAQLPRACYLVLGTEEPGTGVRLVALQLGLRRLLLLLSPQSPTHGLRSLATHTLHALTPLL
T2 sequence (Q9ULD6 whole entry, looked up): T1 sequence

[3] = molecular target: B1; experiment: cryo-EM structure; HsFuzzy, HsInturned and HsRab23^N121I coexpressed in insect cells, complex purified; ~0.7 mg/ml; 0.002% lauryl maltose neopentyl glycol on grid; dimeric and trimeric particles in one sample; 50 mM tris, 200 mM NaCl, 0.5 mM TCEP, 1 mM MgCl2 (pH 8); settings: both partners purified
[4] = molecular target: T3, HsFuzzy-Inturned complex (cryo-EM sample) (human, UniProt Q9BT04 2-418; Q9ULD6 1-942); experiment: as above; settings: both partners purified
T3 construct: Fuzzy, human; as m5; Inturned, human; as m6; Heterodimer of m5 and m6; seen alone and with Rab23^N121I in the same cryo-EM sample; also called dimeric Fuzzy-Inturned complex; source: Spodoptera frugiperda 21 cells (biGBac), coexpressed, purified (glutathione agarose, SEC)
T3 sequence 1: B1 chain
T3 sequence 2: T1 sequence

## B1
[1]
  binding result: binds

## B2
[2]
  stimulation of nucleotide exchange (MANT-GDP release) of Rab23^I33A/T35A by Fuzzy^LD1-Inturned^LD1, against Rab23 WT: 5 fold

## B3
[3]
  binding result: binds
[1]
  binding result: binds
[4]
  binding result: binds
